Square brackets hold non-standard residues; d marks the D form. Dap = NC[C@H](N)C(=O)O
Assays:
[1] = target: T1, mouse melanocortin 1 receptor (mouse, UniProt Q01727 1-315); test: cell-based or functional assay
[2] = target: T2, mouse melanocortin 3 receptor (mouse, UniProt P33033 1-323); test: cell-based or functional assay
[3] = target: T3, mouse melanocortin 4 receptor (mouse, UniProt P56450 1-332); test: cell-based or functional assay
[4] = target: T4, mouse melanocortin 5 receptor (mouse, UniProt P41149 1-325); test: cell-based or functional assay
[5] = target: T1, mouse melanocortin 1 receptor; test: radioligand binding
[6] = target: T2, mouse melanocortin 3 receptor; test: radioligand binding
[7] = target: T3, mouse melanocortin 4 receptor; test: radioligand binding
[8] = target: T4, mouse melanocortin 5 receptor; test: radioligand binding
[9] = target: human melanocortin 4 receptor (human, UniProt P32245 1-332); test: radioligand binding
Chain of human melanocortin 4 receptor (P32245 whole entry): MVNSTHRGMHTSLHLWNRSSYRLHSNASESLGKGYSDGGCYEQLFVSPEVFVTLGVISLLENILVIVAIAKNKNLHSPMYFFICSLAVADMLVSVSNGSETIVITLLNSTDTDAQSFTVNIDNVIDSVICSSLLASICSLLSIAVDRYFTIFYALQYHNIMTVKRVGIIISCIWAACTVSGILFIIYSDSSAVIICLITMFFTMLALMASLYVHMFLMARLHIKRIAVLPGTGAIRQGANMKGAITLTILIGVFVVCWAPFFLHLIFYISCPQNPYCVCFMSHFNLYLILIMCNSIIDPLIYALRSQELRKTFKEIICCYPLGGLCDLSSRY

T3 sequence (P56450 whole entry): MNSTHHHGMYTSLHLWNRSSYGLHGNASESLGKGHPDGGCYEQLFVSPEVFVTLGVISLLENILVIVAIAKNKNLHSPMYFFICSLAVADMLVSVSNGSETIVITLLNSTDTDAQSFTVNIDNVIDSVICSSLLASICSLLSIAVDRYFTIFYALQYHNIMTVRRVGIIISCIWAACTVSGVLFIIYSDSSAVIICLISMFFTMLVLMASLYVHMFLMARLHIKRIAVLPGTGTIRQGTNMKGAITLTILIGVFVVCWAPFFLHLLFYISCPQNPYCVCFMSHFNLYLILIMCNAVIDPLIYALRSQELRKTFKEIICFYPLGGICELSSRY
T4 sequence (P41149 whole entry): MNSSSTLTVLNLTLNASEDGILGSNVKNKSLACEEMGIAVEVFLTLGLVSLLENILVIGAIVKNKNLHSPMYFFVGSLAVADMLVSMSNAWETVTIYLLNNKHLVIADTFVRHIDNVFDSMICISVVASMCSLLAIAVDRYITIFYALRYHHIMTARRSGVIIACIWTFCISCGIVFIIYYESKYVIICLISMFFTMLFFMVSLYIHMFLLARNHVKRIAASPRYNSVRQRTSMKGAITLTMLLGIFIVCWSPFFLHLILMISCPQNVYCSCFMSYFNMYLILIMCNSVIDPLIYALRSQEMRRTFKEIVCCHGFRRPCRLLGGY
T1 sequence (Q01727 whole entry): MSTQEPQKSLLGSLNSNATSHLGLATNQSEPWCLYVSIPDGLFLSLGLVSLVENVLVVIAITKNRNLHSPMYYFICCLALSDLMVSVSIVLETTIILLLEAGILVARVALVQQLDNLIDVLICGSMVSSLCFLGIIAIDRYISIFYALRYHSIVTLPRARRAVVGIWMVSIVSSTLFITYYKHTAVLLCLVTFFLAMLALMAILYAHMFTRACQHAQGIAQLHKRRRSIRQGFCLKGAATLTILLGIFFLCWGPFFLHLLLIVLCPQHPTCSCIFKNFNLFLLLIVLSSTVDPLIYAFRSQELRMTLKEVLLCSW
T2 sequence (P33033 whole entry): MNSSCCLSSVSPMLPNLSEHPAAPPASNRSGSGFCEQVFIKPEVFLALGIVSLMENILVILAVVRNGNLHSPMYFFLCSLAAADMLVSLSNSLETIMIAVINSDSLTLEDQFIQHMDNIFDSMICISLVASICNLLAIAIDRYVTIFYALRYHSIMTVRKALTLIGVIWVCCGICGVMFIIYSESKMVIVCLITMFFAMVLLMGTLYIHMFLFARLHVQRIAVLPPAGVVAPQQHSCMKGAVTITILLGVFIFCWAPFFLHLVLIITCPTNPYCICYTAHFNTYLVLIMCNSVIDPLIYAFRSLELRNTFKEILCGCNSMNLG

Row | Binder | agonist activity, cAMP AlphaScreen, HEK293 cells stably expressing the receptor [1] | agonist activity, cAMP AlphaScreen, HEK293 cells stably expressing the receptor [2] | agonist activity, cAMP AlphaScreen, HEK293 cells stably expressing the receptor [3] | agonist activity, cAMP AlphaScreen, HEK293 cells stably expressing the receptor [4] | IC50 [5] | IC50 [6] | IC50 [7] | IC50 [8] | IC50 [9]
1 | cyclo(PRFFNAF[dP]) [c[Pro-Arg-Phe-Phe-Asn-Ala-Phe-DPro]] |  |  |  |  | 9 µM |  |  |  | 
2 | cyclo(PCFFNAF[dP]) [c[Pro-Cys-Phe-Phe-Asn-Ala-Phe-DPro]] | 46 % of maximal NDP-MSH response at 100 μM | > 100 µM | > 100 µM |  | 24.6 µM | > 100 µM | 1.9 µM | > 100 µM | 19.3 µM
3 | PRFFXAFP (Dap (diaminopropionic acid) at position 5 (X in the letters); DPro at position 8; head-to-tail cyclised (macrocycle)) [c[Pro-Arg-Phe-Phe-Dap-Ala-Phe-DPro]] |  |  |  |  | 5.2 µM | 3.2 µM |  | 1.7 µM | 
4 | cyclo(PRFF[Dap]VF[dP]) [c[Pro-Arg-Phe-Phe-Dap-Val-Phe-DPro]] | 79 % of maximal NDP-MSH response at 100 μM | 27 % of maximal NDP-MSH response at 100 μM | 37 % of maximal NDP-MSH response at 100 μM | > 100 µM | 8 µM | 10 µM |  | 2.7 µM | 0.0322 µM

Second part, the binder after the results:

Row | agonist activity, cAMP AlphaScreen, HEK293 cells stably expressing the receptor [1] | agonist activity, cAMP AlphaScreen, HEK293 cells stably expressing the receptor [2] | agonist activity, cAMP AlphaScreen, HEK293 cells stably expressing the receptor [3] | agonist activity, cAMP AlphaScreen, HEK293 cells stably expressing the receptor [4] | IC50 [5] | IC50 [6] | IC50 [7] | IC50 [8] | IC50 [9] | Binder
5 | 4 µM | 29 % of maximal NDP-MSH response at 100 μM | 42 % of maximal NDP-MSH response at 100 μM | > 100 µM | 33 µM | 49 µM | 10 µM | > 100 µM | 15.7 µM | cyclo(PCFF[Dap]AF[dP]) [c[Pro-Cys-Phe-Phe-Dap-Ala-Phe-DPro]]
6 | 23 % of maximal NDP-MSH response at 100 μM | > 100 µM | 16 % of maximal NDP-MSH response at 100 μM | > 100 µM | 15 µM | 53 µM | 0.038 µM | 29 µM | 0.25 µM | cyclo(PRFFNVF[dP]) [c[Pro-Arg-Phe-Phe-Asn-Val-Phe-DPro]]
7 | > 100 µM | > 100 µM | > 100 µM |  | > 100 µM | > 100 µM | 2 µM | > 100 µM | 14.3 µM | cyclo(PRYFNAF[dP]) [c[Pro-Arg-Tyr-Phe-Asn-Ala-Phe-DPro]]
8 | 23 % of maximal NDP-MSH response at 100 μM | > 100 µM | > 100 µM | > 100 µM | > 100 µM | > 100 µM | 6.7 µM | > 100 µM | 22 µM | cyclo(PHFFNAF[dP]) [c[Pro-His-Phe-Phe-Asn-Ala-Phe-DPro]]
9 | 48 % of maximal NDP-MSH response at 100 μM | > 100 µM | > 100 µM | > 100 µM | 18 µM | 28 µM | 0.134 µM | 36 µM | 1.02 µM | cyclo(PRYF[Dap]AF[dP]) [c[Pro-Arg-Tyr-Phe-Dap-Ala-Phe-DPro]]
10 | 56 % of maximal NDP-MSH response at 100 μM | > 100 µM | > 100 µM | > 100 µM | 25 µM | 15 µM | 1 µM | 12 µM | 2.7 µM | cyclo(PHFF[Dap]AF[dP]) [c[Pro-His-Phe-Phe-Dap-Ala-Phe-DPro]]

— paper PMC7250496 (Journal of medicinal chemistry, 2020)
